Measured values: patent US10975365B2, “Di-enzymatic chimeric endolysin” (Government of the United States of America, as represented …, priority 2018, dated 2021)

Assays:
[1] = tested on: eight serotypes of pneumococci; test: MIC test on pneumococcal strains; assay type: cell-based, Streptococcus pneumoniae
Description: The MICs of enzymes and antibiotics were determined in a 96-well titration plate in triplicate. Briefly, the overnight pneumococcal culture was diluted with 2×THY to obtain a final concentration of 1×10^7 CFU/ml, and other bacterial species were diluted with 2-folded medium to 1×10^5 CFU/ml. 100 μl of the diluted bacterial culture was subjected into each well, mixing with the serial 2-fold diluted 100 μl of enzymes/antibiotics. PBS buffer was used as a negative control. The plates were sealed via parafilm and statically incubated at 37° C. incubator for 24 h. The MIC was defined as the lowest concentration of treatment that inhibited visible growth of the bacterium.
To further evaluate the activity of ClyX-1, MIC tests were performed against eight serotypes of pneumococci including penicillin-resistant strains and capsule-free mutant with information shown in FIG. 13. Penicillin and levofloxacin were tested as standards to benchmark the antimicrobial activity. All of the strains were sensitive to levofloxacin (MIC<=2). Only the two penicillin-resistant strains indicated MIC larger than 2 μg/ml (resistance). […] The MICs of ClyX-1 were lower than that of Cpl-1 and even levofloxacin, ranging from 0.13 μg/ml to 0.5 μg/ml.

[2] = tested on: five strains of stationary phase S. pneumoniae; test: Bactericidal activity of ClyX-3 on pneumococcal strains; assay type: cell-based, Streptococcus pneumoniae; conditions: 5 μg/ml; 5 min
Description: (a) Bactericidal effects of ClyX-3 against five strains of stationary phase S. pneumoniae. 5 μg/ml of enzymes were mixed with 10^6 bacterial cultures for 5 min. Log killing was determined through the comparisons of PBS treatment and enzymes treatment. (b) Bactericidal effects of ClyX-4 against stationary phase streptococci. 50 μg/ml of enzymes were mixed with 10^6 bacterial culture for 1 h. Log killing was determined through the comparisons of PBS treatment and enzymes treatment;
(§1) With regard to bactericidal assay, bacterial cells were diluted to 2× rich media to generate a final concentration of 5.0×10^6 CFU/ml. 100 μl of the diluted bacterial culture was added into a 96-well titration plate in triplicate and mixed with 100 μl of sterile-filtered enzymes. Plates were sealed and incubated at 37° C. for 5-60 min. After the incubation, bacterial cells were serially diluted in 10-fold increments into sterile PBS and plated on THY/TSB agar. Log killing was calculated as follows: −log[(CFU under enzyme treatment)/(CFU under PBS treatment)].
With regard to applying the design rationale to add a C′ terminal EAD such that two EADs are disposed at each side of the CBD, the process was used to engineer endolysins for increased activity. […]

[3] = tested on: S. pneumoniae ATCC TIGR 4; test: Bacteriolytic (turbidity reduction) assay; assay type: cell-based, Streptococcus pneumoniae; conditions: 5 μg/ml; OD from 1.0 to 0.2 within the first 2 min; overnight culture
Description: In a bacteriolytic assay, bacterial culture (stationary phase) was harvested at 5,000 for 10 min at 4° C., washed twice and resuspended in PBS buffer, pH7.4. In a 96-well titration plate, the resuspended bacterial solution was mixed 1:1 (u/u) with endolysin to a final OD600 between 0.8 to 1.0. In each run, PBS was included as a negative control. Spectrophotometric readings (OD600) were taken every 15 s over 10 min on a spectrophotometer. Vmax was calculated as the slope of the linear portion and represented the endolysins activity. All experiments were conducted in triplicate to get the standard deviation.
Bacteriolytic capacity of ClyX-1 and ClyX-1 linkers were analyzed via the turbidity reduction assay against the overnight culture of S. pneumoniae ATCC TIGR 4. Both enzymes-induced lysis of the bacterial peptidoglycan caused a decrease in OD from 1.0 to 0.2 (80%) within the first 2 min of the turbidity assay at 5 μg/ml as shown in FIG. 9a. The linkers were the only difference between these two enzymes, and the unstructured region of PlyCA GyH, PlyCA CHAP, and Cpl-1 CBD provide optimal flexibility for enzymatical activity. High lytic activity correlated with data for bacterial survival after chimera treatment. ClyX-1 sterilized cultures for 5 min, causing a decrease in TIGR 4 viability of ˜6 log, at as low as 0.5 μg/ml (FIG. 9b). […]

S. pneumoniae D39 = test: Bactericidal assay on D39, ClyX-1 compared with Cpl-1 and PlyCA; assay type: cell-based, Streptococcus pneumoniae
Description: (§2) (a) Different concentrations of ClyX-1 and Cpl-1 were mixed with 10^6 overnight S. pneumoniae D39 culture for 5 min. The cells were then serial diluted and plated on the THY plates. Log killing was determined through the comparisons of PBS treatment and the enzymes treatment. (b) Female BALB/c mice were injected intraperitoneally with pneumococcus strain S. pneumoniae NS26 at a single dose at 2.95×10^7 colony forming units (CFU) per mouse. One hour after the infection, mice were intraperitoneally received a single dose of different treatments in different amount per mouse. The lines represent the percentage survival of mice for 10 days. The data was plotted as Kaplan-Meier survival curves and analyzed via the Log-rank (Mantel-Cox) test (*P<0.001; **P<0.0001);
as §1
Bactericidal assays were repeated using the three lysins at different concentrations (0.5 μg/ml to 50 μg/ml) on a different strain, D39 (FIG. 10a).

S. pneumoniae NS26 = test: Mouse systemic infection model, survival; assay type: in vivo, female BALB/c mice
Description: as §2
With regard to in vivo mouse infection models, mouse infection experiments were carried out in an ABSL-2 lab. In the mouse systemic infection model, female BALB/c mice (6-8 weeks old) were injected intraperitoneally with S. pneumoniae NS26 at a single dose of 2.95×10^7 CFU/mouse and divided randomly into multiple groups. Bacterial burden in blood and organs in mice 1 h post-infected were confirmed by plating on THY agar as described previously. One hour post-infection, these groups intraperitoneally received a single dose of 20, 40, or 80 μg/mouse of […] (n=10); 20, 40, or 80 μg/mouse of Cpl-1 (n=10); 100 μg/mouse of penicillin G (n=10); or an equal volume of PBS buffer (n=10). The survival data for all groups were recorded for 10 days.
To validate the in vitro bactericidal activity of ClyX-1, we applied a mouse systemic infection model to test the in vivo efficacy of the enzyme. Mice were challenged to a 2-days lethal-dose of 2.95×10^7 CFU. One hour after infection, the mice were intraperitoneally injected a single dose containing different amount of either ClyX-1 or Cpl-1 ranging from 20 μg-80 μg. The antibiotics control was 100 μg/mouse of penicillin G, and the negative control was as PBS, pH7.4 buffer. The mice were then observed and recorded for the survival data. All the mice treated with PBS buffer died within the first 2 days.

C[C@H]1COc2c(N3CCN(C)CC3)c(F)cc3c(=O)c(C(=O)O)cn1c23 [levofloxacin]
MIC ([1]; all strains, 24 h, unit not given): <= 2

Penicillin
MIC ([1]; the two penicillin-resistant strains): > 2 µg/mL

B1: ClyX-3: the full-length Cpl-1 with an additional C′ terminal PlyC CHAP; Seq. ID No. 21 (protein)
chain: MVKKNDLFVDVSSHNGYDITGILEQMGTTNTIIKISESTTYLNPCLSAQVEQSNPIGFYHFARFGGDVAEAEREAQFFLDNVPMQVKYLVLDYEDDPSGDAQANTNACLRFMQMIADAGYKPIYYSYKPFTHDNVDYQQILAQFPNSLWIAGYGLNDGTANFEYFPSMDGIRWWQYSSNPFDKNIVLLDDEEDDKPKTAGTWKQDSKGWWFRRNNGSFPYNKWEKIGGVWYYFDSKGYCLTSEWLKDNEKWYYLKDNGAMATGWVLVGSEWYYMDDSGAMVTGWVKYKNNWYYMTNERGNMVSNEFIKSGKGWYFMNTNGELADNPSFTKEPDGLITVAGSDRVAANLANAQAQVGKYIGDGQCYAWVGWWSARVCGYSISYSTGDPMLPLIGDGMNAHSIHLGWDWSIANTGIVNYPVGTVGRKEDLRVGAIWCATAFSGAPFYTGQYGHTGIIESWSDTTVTVLEQNILGSPVIRSTYDLNTFLSTLTGLITFK
modifications: Bacteriophage
notes: the full-length Cpl-1 with an additional C′ terminal PlyC CHAP; ID No. 21
activity by MIC compared with parental endolysin and ClyX-1 [1]: better than parental endolysins | log reduction of tested pneumococcal strains [2]: ~4 logs

B2: ClyX-1 linkers: similar to ClyX-1 but with two extra native linkers in the PlyCA; Seq. ID No. 18 (protein)
chain: MSKKYTQQQYEKYLAQPANNTFGLSPQQVADWFMGQAGARPVINSYGVNASNLVSTYIPKMQEYGVSYTLFLMYTVFEGGGAGNWINHYMYDTGSNGLECLEHDLQYIHGVWETYFPPALSAPECYPATEDNAGALDRFYQSLPGRTWGDVMIPSTMAGNAWVWAYNYCVNNQGAAPLVYFGNPYDSQIDSLLAMGADPFTGGSITGDGKNPSVGTGNATVSASSECTMEEDDKPKTAGTWKQDSKGWWFRRNNGSFPYNKWEKIGGVWYYFDSKGYCLTSEWLKDNEKWYYLKDNGAMATGWVLVGSEWYYMDDSGAMVTGWVKYKNNWYYMTNERGNMVSNEFIKSGKGWYFMNTNGELADNPSFTKEPDGLITVALQQTNPNPDKPTVKSPGQNDLGSGSDRVAANLANAQAQVGKYIGDGQCYAWVGWWSARVCGYSISYSTGDPMLPLIGDGMNAHSIHLGWDWSIANTGIVNYPVGTVGRKEDLRVGAIWCATAFSGAPFYTGQYGHTGIIESWSDTTVTVLEQNILGSPVIRSTYDLNTFLSTLTGLITFK
modifications: Bacteriophage
notes: similar to ClyX-1 but with two extra native linkers in the PlyCA; ID No. 18
decrease in OD in turbidity assay [3]: 80%

B3: Cpl-1: parental endolysin derived from the streptococcal Cp-1 phage (protein, UniProt P15057 1-339, looked up)
Lysozyme: MVKKNDLFVDVSSHNGYDITGILEQMGTTNTIIKISESTTYLNPCLSAQVEQSNPIGFYHFARFGGDVAEAEREAQFFLDNVPMQVKYLVLDYEDDPSGDAQANTNACLRFMQMIADAGYKPIYYSYKPFTHDNVDYQQILAQFPNSLWIAGYGLNDGTANFEYFPSMDGIRWWQYSSNPFDKNIVLLDDEEDDKPKTAGTWKQDSKGWWFRRNNGSFPYNKWEKIGGVWYYFDSKGYCLTSEWLKDNEKWYYLKDNGAMATGWVLVGSEWYYMDDSGAMVTGWVKYKNNWYYMTNERGNMVSNEFIKSGKGWYFMNTNGELADNPSFTKEPDGLITVA
log reduction (S. pneumoniae D39; 0.5 μg/ml, 5 min): < 1 log | concentration at which the bacteria culture was sterilized (S. pneumoniae D39; within 5 min, tested 0.5 to 50 μg/ml): 50 µg/mL | log reduction of tested pneumococcal strains [2]: ~2 logs | time within which the mice had died (S. pneumoniae NS26; 20 μg single i.p. dose 1 h after infection): ≤ 5 days | mice rescued (survival) (S. pneumoniae NS26; 80 μg single i.p. dose 1 h after infection, 10 days): 20%
